# Measurements reported in article PMC2654577.
# B1: C1-inhibitor (natural protein)
# chain: NPNATSSSSQDPESLQDRGEGKVATTVISKMLFVEPILEVSSLPTTNSTTNSATKITANTTDEPTTQPTTEPTTQPTIQPTQPTTQLPTDSPTQPTTGSFCPGPVTLCSDLESHSTEAVLGDALVDFSLKLYHAFSAMKKVETNMAFSPFSIASLLTQVLLGAGENTKTNLESILSYPKDFTCVHQALKGFTTKGVTSVSQIFHSPDLAIRDTFVNASRTLYSSSPRVLSNNSDANLELINTWVAKNTNNKISRLLDSLPSDTRLVLLNAIYLSAKWKTTFDPKKTRMEPFHFKNSVIKVPMMNSKKYPVAHFIDQTLKAKVGQLQLSHNLSLVILVPQNLKHRLEDMEQALSPSVFKAIMEKLEMSKFQPTLLTLPRIKVTTSQDMLSIMEKLEFFDFSYDLNLCGLTEDPDLQVSAMQHQTVLELTETGVEAAAASAISVARTLLVFEVQQPFLFVLWDQQHKFPVFMGRVYDPRA
# Assays:
# Assay in all cases: enzyme inhibition kinetics
# [1] = biological target: factor XIa catalytic domain R171A (human) (UniProt P03951)
# [2] = biological target: factor XIa catalytic domain R173A (human) (UniProt P03951)
# [3] = biological target: factor XIa catalytic domain with residues 170, 171 and 173 changed to alanine (human) (UniProt P03951)
# [4] = biological target: full-length factor XIa autolysis loop variant fXIa-144-149A (human)
# [5] = biological target: wild type recombinant factor XIa, full length (human)
binder,measurement,setting,value
B1,k2 (second-order inhibition rate constant),[1],261000 M⁻¹ s⁻¹
same,k2 (second-order inhibition rate constant),[2],667000 M⁻¹ s⁻¹
same,k2 (second-order inhibition rate constant),[3],430000 M⁻¹ s⁻¹
same,k2 (second-order inhibition rate constant),[4],20600 M⁻¹ s⁻¹
same,k2 (second-order inhibition rate constant),[5],536000 M⁻¹ s⁻¹
